Source: the supplement of paper PMC9112550, “Optimization of the antimicrobial peptide Bac7 by deep mutational scanning” (BMC Biology, 2022)

System: Escherichia coli TOP10
Test: shrunken log2 fold change of peptide-encoding DNA abundance (4.5 h post-induction vs induction); higher = less antimicrobial activity (less host growth inhibition)
Conditions: time post-induction: 4.5 h; library: site-saturation at positions 5, 18, 19, 20
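Also: peptides expressed intracellularly from a pBAD plasmid library in pooled LB shake-flask culture, induced with 0.3% L-arabinose, DNA abundance read by NGS, three biological replicates, DESeq2 with apeglm shrinkage.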

Sequence	shrunken log2 fold change
RRIRARPPRLPRPRPRPWVHPRP	-0.162
RRIRRRPPRLPRPRPRPHLYPRP	0.176
RRIRDRPPRLPRPRPRPWLVPRP	-0.117
RRIRIRPPRLPRPRPRPGTDPRP	-0.114
RRIRNRPPRLPRPRPRPVDHPRP	-0.01
RRIRSRPPRLPRPRPRPEMKPRP	0.114
RRIRCRPPRLPRPRPRPESVPRP	0.025
RRIRHRPPRLPRPRPRPTEHPRP	-0.243
RRIRWRPPRLPRPRPRPTMKPRP	-0.0612
RRIRMRPPRLPRPRPRPEDGPRP	2.85
RRIRTRPPRLPRPRPRPVRQPRP	0.264
RRIRVRPPRLPRPRPRPTVWPRP	0.408
RRIRNRPPRLPRPRPRPDKYPRP	-0.665
RRIRFRPPRLPRPRPRPEKWPRP	0.109
RRIRHRPPRLPRPRPRPMQGPRP	-0.0154
RRIRWRPPRLPRPRPRPSIWPRP	-0.353
RRIRKRPPRLPRPRPRPCWFPRP	-0.0655
RRIRGRPPRLPRPRPRPECNPRP	1.95
RRIRVRPPRLPRPRPRPTDTPRP	0.817
RRIRKRPPRLPRPRPRPHLYPRP	0.0535
RRIRSRPPRLPRPRPRPCCSPRP	-0.00502
RRIRPRPPRLPRPRPRPGYGPRP	0.0799
RRIRPRPPRLPRPRPRPCPKPRP	-0.0283
RRIRRRPPRLPRPRPRPDPRPRP	0.12
RRIRRRPPRLPRPRPRPCMPPRP	-0.301

Sequence	shrunken log2 fold change
RRIRQRPPRLPRPRPRPQYKPRP	-0.314
RRIRLRPPRLPRPRPRPFWNPRP	-0.275
RRIRDRPPRLPRPRPRPQECPRP	0.0795
RRIRKRPPRLPRPRPRPWCWPRP	0.357
RRIRPRPPRLPRPRPRPNVCPRP	-0.169
RRIRYRPPRLPRPRPRPRQKPRP	0.114
RRIRVRPPRLPRPRPRPVYTPRP	-0.324
RRIRHRPPRLPRPRPRPDGVPRP	0.0513
RRIRMRPPRLPRPRPRPFKKPRP	0.0258
RRIRMRPPRLPRPRPRPSIQPRP	0.0104
RRIRARPPRLPRPRPRPLEGPRP	0.564
RRIRTRPPRLPRPRPRPWREPRP	-0.00743
RRIRNRPPRLPRPRPRPFLEPRP	0.0329
RRIRVRPPRLPRPRPRPTVKPRP	0.0641
RRIRSRPPRLPRPRPRPTFCPRP	0.155
RRIRRRPPRLPRPRPRPCQNPRP	-0.0482
RRIRVRPPRLPRPRPRPYCHPRP	-0.0116
RRIRSRPPRLPRPRPRPELLPRP	-0.111
RRIRARPPRLPRPRPRPGQVPRP	0.402
RRIRMRPPRLPRPRPRPSLLPRP	0.0721
RRIRRRPPRLPRPRPRPCMAPRP	0.61
RRIRERPPRLPRPRPRPTNGPRP	-0.163
RRIRARPPRLPRPRPRPVAYPRP	0.0127
RRIRTRPPRLPRPRPRPLPSPRP	-0.0373
RRIRDRPPRLPRPRPRPVFHPRP	-0.707

Sequence	shrunken log2 fold change
RRIRFRPPRLPRPRPRPTTHPRP	-0.0585
RRIRVRPPRLPRPRPRPRRKPRP	0.0637
RRIRMRPPRLPRPRPRPVEMPRP	-0.0685
RRIRFRPPRLPRPRPRPVGWPRP	0.62
RRIRCRPPRLPRPRPRPSVTPRP	-0.288
RRIRDRPPRLPRPRPRPHHCPRP	-0.126
RRIRKRPPRLPRPRPRPVHVPRP	0.0513
RRIRLRPPRLPRPRPRPHKMPRP	-0.355
RRIRFRPPRLPRPRPRPGEKPRP	0.084
RRIRYRPPRLPRPRPRPFQWPRP	0.0299
RRIRKRPPRLPRPRPRPPHIPRP	0.41
RRIRKRPPRLPRPRPRPMYCPRP	-0.233
RRIRQRPPRLPRPRPRPQGPPRP	0.189
RRIRHRPPRLPRPRPRPKIPPRP	-0.254
RRIRQRPPRLPRPRPRPNAAPRP	0.0416
RRIRDRPPRLPRPRPRPGDRPRP	-0.00192
RRIRGRPPRLPRPRPRPNHHPRP	0.491
RRIRRRPPRLPRPRPRPHLAPRP	-0.0318
RRIRHRPPRLPRPRPRPNDDPRP	-0.259
RRIRARPPRLPRPRPRPRAEPRP	0.983
RRIRFRPPRLPRPRPRPHTMPRP	-0.459
RRIRKRPPRLPRPRPRPLTIPRP	0.146
RRIRGRPPRLPRPRPRPVESPRP	0.00705
RRIRTRPPRLPRPRPRPKSKPRP	0.0217
RRIRDRPPRLPRPRPRPMPGPRP	0.065

Sequence	shrunken log2 fold change
RRIRQRPPRLPRPRPRPWLHPRP	0.0098
RRIRLRPPRLPRPRPRPWSYPRP	-1.41
RRIRKRPPRLPRPRPRPDFTPRP	-0.206
RRIRERPPRLPRPRPRPMVAPRP	0.138
RRIRPRPPRLPRPRPRPEEVPRP	0.0532
RRIRVRPPRLPRPRPRPTRPPRP	0.822
RRIRCRPPRLPRPRPRPNAEPRP	0.118
RRIRHRPPRLPRPRPRPLVPPRP	-0.0575
RRIRQRPPRLPRPRPRPEIHPRP	-0.0415
RRIRARPPRLPRPRPRPNVPPRP	0.0126
RRIRDRPPRLPRPRPRPYNNPRP	-0.489
RRIRARPPRLPRPRPRPNTEPRP	0.154
RRIRDRPPRLPRPRPRPNTMPRP	-0.167
RRIRMRPPRLPRPRPRPTSCPRP	0.415
RRIRDRPPRLPRPRPRPVPKPRP	0.32
RRIRRRPPRLPRPRPRPDFIPRP	0.0171
RRIRNRPPRLPRPRPRPLVMPRP	-0.126
RRIRERPPRLPRPRPRPENAPRP	-0.00683
RRIRVRPPRLPRPRPRPQQGPRP	0.403
RRIRIRPPRLPRPRPRPYWSPRP	0.0464
RRIRKRPPRLPRPRPRPDFRPRP	0.134
RRIRKRPPRLPRPRPRPDQDPRP	0.0345
RRIRDRPPRLPRPRPRPIVNPRP	-0.0751
RRIRQRPPRLPRPRPRPGDMPRP	-0.164
RRIRQRPPRLPRPRPRPSCYPRP	-0.396

Sequence	shrunken log2 fold change
RRIRERPPRLPRPRPRPWYWPRP	0.0516
RRIRHRPPRLPRPRPRPTPWPRP	0.692
RRIRCRPPRLPRPRPRPPTYPRP	-0.133
RRIRWRPPRLPRPRPRPCQPPRP	-0.118
RRIRKRPPRLPRPRPRPAGWPRP	0.893
RRIRNRPPRLPRPRPRPIIQPRP	-0.481
RRIRRRPPRLPRPRPRPKKRPRP	0.976
RRIRVRPPRLPRPRPRPYHWPRP	-0.633
RRIRSRPPRLPRPRPRPVAKPRP	0.116
RRIRRRPPRLPRPRPRPNGLPRP	0.0125
RRIRIRPPRLPRPRPRPYMLPRP	-0.916
RRIRHRPPRLPRPRPRPCHDPRP	0.0948
RRIRCRPPRLPRPRPRPLVLPRP	-0.378
RRIRYRPPRLPRPRPRPKAKPRP	0.0915
RRIRKRPPRLPRPRPRPHCNPRP	-0.275
RRIRVRPPRLPRPRPRPRRFPRP	0.309
RRIRERPPRLPRPRPRPFDCPRP	-0.0657
RRIRIRPPRLPRPRPRPMQQPRP	0.0184
RRIRPRPPRLPRPRPRPHPEPRP	0.203
RRIRPRPPRLPRPRPRPTPWPRP	0.427
RRIRARPPRLPRPRPRPRVQPRP	0.359
RRIRPRPPRLPRPRPRPHGDPRP	-0.0431
RRIRDRPPRLPRPRPRPTLYPRP	0.26
RRIRRRPPRLPRPRPRPWDAPRP	0.143
RRIRYRPPRLPRPRPRPHCPPRP	-0.0417
